{
  "source": "paper PMC3437676",
  "origin": "cited, not measured here",
  "target": "Asp25 (UniProt position 515, KEALLDTGADD)",
  "assay": "NMR",
  "conditions": "free model peptide",
  "data": [
    {"substance": "HIV-1 protease model peptide, residues 20-30 (Human immunodeficiency virus 1)", "values": [
      {"measurement": "pKa", "result": "near 4.0"}
    ]}
  ]
}
